The star is where a group is joined. Decanoyl = CCCCCCCCCC(=O)*; CH2Cl = ClC*

One substance from patent publication EP4138793B1, “NOVEL NON-PROTEINIC FURIN INHIBITOR” (priority 2020, dated 2021) can be followed below.

The target of this test is furine humaine recombinante (Homo sapiens, UniProt P09958). Nature of the test: Inhibition of furin enzyme activity (cleavage of a fluorescent substrate). The test is classed as biochemical. To be noted: reference inhibitor tested at 100 nm. On the procedure: L'expérience est réalisée en utilisant une furine humaine recombinante, qui catalyse le clivage d'un substrat spécifique fluorescent.
Le décanoyl-Arg-Val-Lys-Arg-CMK à 100 nm a été utilisé comme inhibiteur de référence de l'activité de la furine.
La furine est pré-incubée pendant 10 minutes à température ambiante en l'absence (contrôle) ou en présence du produit de référence ou de concentrations croissantes du composé testé : «Amyrines purifiées de Protium heptaphyllum»; 25 ppm; 250 ppm et 1000 ppm (v / v). Le produit «Amyrines purifiées de Protium heptaphyllum» , AMY à 1000 PPM correspond à une solution 0,5% en volume du produit HTRE commercialisé par la société Ephyla.
À la fin de l'étape de pré-incubation, un substrat de furine a été ajouté et les conditions expérimentales ont été incubées à nouveau à température ambiante à l'abri de la lumière pendant 5 minutes. Toutes les expériences ont été réalisées en triplicate.
Le composé d'essai " Amyrines purifiées de Protium heptaphyllum " pré-solubilisé à 10 000 ppm dans du DMSO. La solution a ensuite été diluée dans du tampon d'essai afin d'atteindre les concentrations décrite ci-dessus.
Le clivage du substrat fluorescent de furine a été suivi pendant 5 minutes après l'addition du substrat en lisant la fluorescence à 485 nm / 535 nm.
Les résultats sont exprimés en RFU (unités fluorescentes relatives) +/- S.D. (Écart-type).

Chain of furine humaine recombinante (P09958 108-794): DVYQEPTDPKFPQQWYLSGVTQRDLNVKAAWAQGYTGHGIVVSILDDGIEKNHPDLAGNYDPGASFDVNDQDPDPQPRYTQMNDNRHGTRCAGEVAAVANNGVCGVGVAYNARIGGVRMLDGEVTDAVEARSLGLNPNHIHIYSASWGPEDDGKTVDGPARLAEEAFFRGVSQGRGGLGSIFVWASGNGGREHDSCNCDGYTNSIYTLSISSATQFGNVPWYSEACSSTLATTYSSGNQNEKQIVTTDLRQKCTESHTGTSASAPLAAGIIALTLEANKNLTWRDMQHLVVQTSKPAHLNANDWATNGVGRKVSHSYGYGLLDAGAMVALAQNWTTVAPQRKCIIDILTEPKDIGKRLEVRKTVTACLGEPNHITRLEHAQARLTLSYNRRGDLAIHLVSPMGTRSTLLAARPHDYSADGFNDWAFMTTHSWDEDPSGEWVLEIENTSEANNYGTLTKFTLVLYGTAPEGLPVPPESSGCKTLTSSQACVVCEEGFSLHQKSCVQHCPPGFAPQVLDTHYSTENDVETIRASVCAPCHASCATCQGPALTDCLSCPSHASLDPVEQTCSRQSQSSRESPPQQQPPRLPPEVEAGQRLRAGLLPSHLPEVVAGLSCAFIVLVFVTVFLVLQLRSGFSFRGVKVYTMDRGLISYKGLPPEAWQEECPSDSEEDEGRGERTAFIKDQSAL

As to “Decanoyl-Arg-Val-Lys-Arg-CMK (Decanoyl-RVKR-CH2Cl)”, the “inhibition de l'activité de la furine” value is listed as 97,9%.
